From patent US10428140B2, “Anti-EphA4 antibody” (EISAI R&D MANAGEMENT CO., LTD., priority 2015, dated 2019)

T1: human EphA3 (Homo sapiens, UniProt P29320)
T1 construct: a protein of the extracellular region of each human Eph receptor fused with the SEAP protein and the His tag; made in house; host or cells: Expi293F cells (culture supernatant)
T1 sequence (P29320 21-541 limits assumed): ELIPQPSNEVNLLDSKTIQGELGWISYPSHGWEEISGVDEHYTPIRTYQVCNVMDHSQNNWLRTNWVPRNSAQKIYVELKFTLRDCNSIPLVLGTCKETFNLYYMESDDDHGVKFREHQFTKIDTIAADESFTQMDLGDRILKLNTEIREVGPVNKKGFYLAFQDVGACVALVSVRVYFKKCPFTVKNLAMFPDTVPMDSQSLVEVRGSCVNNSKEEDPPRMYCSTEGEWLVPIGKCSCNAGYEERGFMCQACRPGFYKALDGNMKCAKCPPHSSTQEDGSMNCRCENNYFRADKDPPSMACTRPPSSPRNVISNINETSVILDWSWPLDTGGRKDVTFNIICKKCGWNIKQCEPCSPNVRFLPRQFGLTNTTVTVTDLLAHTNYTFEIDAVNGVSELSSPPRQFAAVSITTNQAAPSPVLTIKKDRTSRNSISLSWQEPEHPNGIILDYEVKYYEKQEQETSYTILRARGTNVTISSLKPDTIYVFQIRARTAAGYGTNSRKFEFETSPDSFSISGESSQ

T2: human EphB4 (Homo sapiens, UniProt P54760)
T2 construct: a protein of the extracellular region of each human Eph receptor fused with the SEAP protein and the His tag; made in house; host or cells: Expi293F cells
T2 sequence (P54760 16-539 limits assumed): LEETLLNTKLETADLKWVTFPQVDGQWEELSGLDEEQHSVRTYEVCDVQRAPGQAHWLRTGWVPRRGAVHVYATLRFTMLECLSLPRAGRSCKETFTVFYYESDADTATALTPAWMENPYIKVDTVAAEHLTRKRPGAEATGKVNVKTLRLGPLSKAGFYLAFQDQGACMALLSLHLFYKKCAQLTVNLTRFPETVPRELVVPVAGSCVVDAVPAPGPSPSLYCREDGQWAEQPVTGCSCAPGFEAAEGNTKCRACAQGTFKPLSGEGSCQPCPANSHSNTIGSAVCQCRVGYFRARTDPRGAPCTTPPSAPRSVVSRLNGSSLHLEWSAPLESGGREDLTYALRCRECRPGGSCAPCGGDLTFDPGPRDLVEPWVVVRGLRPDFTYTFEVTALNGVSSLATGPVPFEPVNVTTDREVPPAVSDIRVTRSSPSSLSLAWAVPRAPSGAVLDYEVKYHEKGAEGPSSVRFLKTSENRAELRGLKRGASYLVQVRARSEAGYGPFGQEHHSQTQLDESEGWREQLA

T3: human EphA10 (Homo sapiens, UniProt Q5JZY3)
T3 construct: a protein of the extracellular region of each human Eph receptor fused with the SEAP protein and the His tag; made in house; host or cells: Expi293F cells (culture supernatant)
T3 sequence (Q5JZY3 34-565 limits assumed): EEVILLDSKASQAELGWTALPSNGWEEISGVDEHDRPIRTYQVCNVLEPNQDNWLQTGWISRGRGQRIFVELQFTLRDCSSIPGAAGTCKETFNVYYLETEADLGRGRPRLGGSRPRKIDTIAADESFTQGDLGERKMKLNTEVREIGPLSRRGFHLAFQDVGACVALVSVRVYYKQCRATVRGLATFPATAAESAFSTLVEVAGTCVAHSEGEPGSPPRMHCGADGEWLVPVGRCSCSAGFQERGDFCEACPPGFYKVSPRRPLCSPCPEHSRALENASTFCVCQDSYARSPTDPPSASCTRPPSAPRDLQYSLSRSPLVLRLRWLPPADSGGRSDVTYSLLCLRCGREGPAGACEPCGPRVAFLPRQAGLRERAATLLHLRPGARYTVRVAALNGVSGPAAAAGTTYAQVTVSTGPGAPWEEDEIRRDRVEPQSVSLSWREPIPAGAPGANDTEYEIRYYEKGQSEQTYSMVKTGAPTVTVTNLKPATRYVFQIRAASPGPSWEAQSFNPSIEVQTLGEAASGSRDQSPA


Experiments:
Experiment in all cases: Selectivity ELISA of humanized antibodies for human Eph receptor
Assay type in all cases: binding
[1] = target: T1, human EphA3; conditions: coated protein 1 nM
Summary of the method: (§1)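 His-tagged SEAP fusions of each human Eph receptor extracellular region, from Expi293F supernatants, were captured at 1 nM on anti-His-coated wells. Humanized antibody was bound 1 h at room temperature, then detected with HRP […] IgG. TMB development was acid-stopped and read at 450 nm.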

[2] = target: T2, human EphB4; conditions: coated protein 1 nM
Summary of the method: as §1

[3] = target: T4, human EphA4 (Homo sapiens, UniProt P54764); conditions: coated protein 1 nM; reference set to 100%
T4 construct: made in house; not restated for the human SEAP-His protein
Summary of the method: as §1

[4] = target: T3, human EphA10; conditions: coated protein 1 nM
Summary of the method: as §1

T4 sequence (P54764 20-547): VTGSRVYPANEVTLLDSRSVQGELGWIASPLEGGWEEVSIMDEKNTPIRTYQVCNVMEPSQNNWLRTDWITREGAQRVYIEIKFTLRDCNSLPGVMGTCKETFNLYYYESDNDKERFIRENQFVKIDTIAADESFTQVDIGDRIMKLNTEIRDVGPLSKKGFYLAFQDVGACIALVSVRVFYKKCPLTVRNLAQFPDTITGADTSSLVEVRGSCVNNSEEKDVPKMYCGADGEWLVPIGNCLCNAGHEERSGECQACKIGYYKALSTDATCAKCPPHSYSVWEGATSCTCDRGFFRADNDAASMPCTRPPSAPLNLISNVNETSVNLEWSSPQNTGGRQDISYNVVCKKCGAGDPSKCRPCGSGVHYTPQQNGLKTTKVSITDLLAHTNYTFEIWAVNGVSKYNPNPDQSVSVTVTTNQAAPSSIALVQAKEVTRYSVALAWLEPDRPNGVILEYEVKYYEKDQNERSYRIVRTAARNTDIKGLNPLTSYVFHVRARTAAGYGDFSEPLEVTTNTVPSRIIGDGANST

| hEphA3-SEAP-: absorbance at 450 nm, percentage with respect to hEphA4-SEAP-His as 100% [1] [%] | hEphB4-SEAP-: absorbance at 450 nm, percentage with respect to hEphA4-SEAP-His as 100% [2] [%] | hEphA4-SEAP-: absorbance at 450 nm, percentage with respect to hEphA4-SEAP-His as 100% [3] [%] | hEphA10-SEAP-: absorbance at 450 nm, percentage with respect to hEphA4-SEAP-His as 100% [4] [%] | Molecule |
| --- | --- | --- | --- | --- |
| 5.5 | 5.5 | 100 | 5.2 | 87 (antibody, V domains shown, constant regions without entry; synthetic humanized antibody light chain variable region sequence; synthetic humanized antibody heavy chain variable region sequence) VL: DIQMTQSPSSLSASVGDRVTITCRASENIYRNLAWYQQKPGKAPQLLLYAATNLADGVPSRFSGSGSGTDYTLTISSLQPEDFATYYCQHFWGTPWTFGQGTKVEIK VH: QVQLVQSGSELKKPGASVKVSCKASGYTFTDYSMHWVRQAPGQGLEWMGWINTETGEPTYAQGFTGRFVFSLDTSVSTAYLQISSLKAEDTAVYYCARIPLYYYGSRYWYFDVWGQGTTVTVSS |
| 5.8 | 5.8 | 100 | 5.7 | 89 (antibody, V domains shown, constant regions without entry; synthetic humanized antibody light chain variable region sequence; synthetic humanized antibody heavy chain variable region sequence) VL: DIQMTQSPSSLSASVGDRVTITCRASENIYRNLAWYQQKPGKAPQLLLYAATNLADGVPSRFSGSGSGTDYTLTISSLQPEDFATYYCQHFWGTPWTFGQGTKVEIK VH: QIQLVQSGSELKKPGASVKVSCKASGYTFTDYSMHWVRQAPGQGLKWMGWINTETGEPTYAQGFTGRFVFSLDTSVSTAYLQISSLKAEDTAVYYCARIPLYYYGSRYWYFDVWGQGTTVTVSS |
| 5.2 | 5.0 | 100 | 5.1 | 90 (antibody, V domains shown, constant regions without entry; synthetic humanized antibody light chain variable region sequence; synthetic humanized antibody heavy chain variable region sequence) VL: DIQMTQSPSSLSASVGDRVTITCRASENIYRNLAWYQQKPGKAPQLLLYAATNLADGVPSRFSGSGSGTDYTLTISSLQPEDFATYYCQHFWGTPWTFGQGTKVEIK VH: QVQLVQSGSELKKPGASVKVSCKASGYTFTDYSMHWVRQAPGQGLEWMGWINTETGEPTYADDFKGRFVFSLDTSVSTAYLQISSLKAEDTAVYYCARIPLYYYGSRYWYFDVWGQGTTVTVSS |

Second part, the molecule before the results:

| Molecule | hEphA3-SEAP-: absorbance at 450 nm, percentage with respect to hEphA4-SEAP-His as 100% [1] [%] | hEphB4-SEAP-: absorbance at 450 nm, percentage with respect to hEphA4-SEAP-His as 100% [2] [%] | hEphA4-SEAP-: absorbance at 450 nm, percentage with respect to hEphA4-SEAP-His as 100% [3] [%] | hEphA10-SEAP-: absorbance at 450 nm, percentage with respect to hEphA4-SEAP-His as 100% [4] [%] |
| --- | --- | --- | --- | --- |
| 93 (antibody, V domains shown, constant regions without entry; synthetic humanized antibody light chain variable region sequence; synthetic humanized antibody heavy chain variable region sequence) VL: EIVMTQSPATLSVSPGERATLSCRASENIYRNLAWYQQKPGQSPRLLIYAATNLADGIPARFSGSGSGTEYTLTISSLQSEDFAVYYCQHFWGTPWTFGQGTKVEIK VH: QVQLVQSGSELKKPGASVKVSCKASGYTFTDYSMHWVRQAPGQGLEWMGWINTETGEPTYAQGFTGRFVFSLDTSVSTAYLQISSLKAEDTAVYYCARIPLYYYGSRYWYFDVWGQGTTVTVSS | 5.1 | 5.0 | 100 | 4.9 |
| 88 (antibody, V domains shown, constant regions without entry; synthetic humanized antibody light chain variable region sequence; synthetic humanized antibody heavy chain variable region sequence) VL: DIQMTQSPSSLSASVGDRVTITCRASENIYRNLAWYQQKPGKAPQLLLYAATNLADGVPSRFSGSGSGTDYTLTISSLQPEDFATYYCQHFWGTPWTFGQGTKVEIK VH: QVQLVQSGSELKKPGASVKVSCKASGYTFTDYSMHWVRQAPGQGLKWMGWINTETGEPTYAQGFTGRFVFSLDTSVSTAYLQISSLKAEDTAVYYCARIPLYYYGSRYWYFDVWGQGTTVTVSS | 6.0 | 6.1 | 100 | 5.8 |
| 92 (antibody, V domains shown, constant regions without entry; synthetic humanized antibody light chain variable region sequence; synthetic humanized antibody heavy chain variable region sequence) VL: DIQMTQSPSSLSASVGDRVTITCRASENIYRNLAWYQQKPGKAPQLLLYAATNLADGVPSRFSGSGSGTDYTLTISSLQPEDFATYYCQHFWGTPWTFGQGTKVEIK VH: QIQLVQSGSELKKPGASVKVSCKASGYTFTDYSMHWVRQAPGQGLKWMGWINTETGEPTYADDFKGRFVFSLDTSVSTAYLQISSLKAEDTAVYYCARIPLYYYGSRYWYFDVWGQGTTVTVSS | 6.5 | 6.6 | 100 | 6.6 |
| 91 (antibody, V domains shown, constant regions without entry; synthetic humanized antibody light chain variable region sequence; synthetic humanized antibody heavy chain variable region sequence) VL: DIQMTQSPSSLSASVGDRVTITCRASENIYRNLAWYQQKPGKAPQLLLYAATNLADGVPSRFSGSGSGTDYTLTISSLQPEDFATYYCQHFWGTPWTFGQGTKVEIK VH: QVQLVQSGSELKKPGASVKVSCKASGYTFTDYSMHWVRQAPGQGLKWMGWINTETGEPTYADDFKGRFVFSLDTSVSTAYLQISSLKAEDTAVYYCARIPLYYYGSRYWYFDVWGQGTTVTVSS | 6.6 | 6.2 | 100 | 8.5 |
